The source of these data is publication PMC6910828, “Extraction of active RhoGTPases by RhoGDI regulates spatiotemporal patterning of RhoGTPases” (eLife, 2019).

Settings in all cases: both partners purified
The target in experiment [1] is Cy3-labelled, prenylated Cdc42, wild type, GDP-bound (Cy3 at the N-terminus (Cy3 N-t labeled LPETGG peptide joined by sortase); geranylgeranyl by in vitro prenylation (C-terminal prenyl moiety); GDP-bound). Briefly: membrane extraction (wash-off) assay on supported lipid bilayers, TIRF; Cy3-labelled prenylated GTPase (200 nM) equilibrated on 100% DOPC supported lipid bilayers, flushed at 10 µL/sec with imaging buffer (20 mM HEPES pH 7.0, 150 mM KCl, 1.5 mM MgCl2, 0.5 mM EGTA, 100 µM GDP/GTP) alone or with 5 µM RhoGDI; decay fitted with a monoexponential function.

The target in experiment [2] is Cy3-labelled, prenylated Rho G14V, GTPγS-bound (Cy3 at the N-terminus (Cy3 N-t labeled LPETGG peptide joined by sortase); geranylgeranyl by in vitro prenylation (C-terminal prenyl moiety); GTPγS-bound). Briefly: membrane extraction (wash-off) assay on supported lipid bilayers, TIRF; as above, GDI titrated between 0 and 20 µM; Koff of the GTPase from the membrane plotted against GDI concentration and fitted with a hyperbolic function (Kd, Vmax); apparent affinities.

Experiment [3] addresses Cy3-labelled, prenylated Cdc42 G12V, GTPγS-bound (Cy3 at the N-terminus (Cy3 N-t labeled LPETGG peptide joined by sortase); geranylgeranyl by in vitro prenylation (C-terminal prenyl moiety); GTPγS-bound). Described as above.

Chain of Cy3-labelled, prenylated Cdc42, wild type, GDP-bound (Cy3 at the N-terminus (Cy3 N-t labeled LPETGG peptide joined by sortase); geranylgeranyl by in vitro prenylation (C-terminal prenyl moiety); GDP-bound) (P60953 whole entry): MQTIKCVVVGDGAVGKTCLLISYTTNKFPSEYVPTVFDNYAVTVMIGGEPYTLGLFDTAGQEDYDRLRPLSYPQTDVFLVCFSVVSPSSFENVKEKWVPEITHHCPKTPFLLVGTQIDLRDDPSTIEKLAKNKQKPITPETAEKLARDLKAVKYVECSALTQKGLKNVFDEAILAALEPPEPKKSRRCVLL
Chain of Cy3-labelled, prenylated Cdc42 G12V, GTPγS-bound (Cy3 at the N-terminus (Cy3 N-t labeled LPETGG peptide joined by sortase); geranylgeranyl by in vitro prenylation (C-terminal prenyl moiety); GTPγS-bound) (chain, as listed by the source G12V): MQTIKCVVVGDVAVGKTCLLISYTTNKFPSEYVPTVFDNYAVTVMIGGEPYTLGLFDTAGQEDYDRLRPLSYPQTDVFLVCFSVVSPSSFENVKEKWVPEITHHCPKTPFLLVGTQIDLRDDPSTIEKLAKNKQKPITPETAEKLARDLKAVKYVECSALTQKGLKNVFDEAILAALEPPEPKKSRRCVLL
Chain of Cy3-labelled, prenylated Rho G14V, GTPγS-bound (Cy3 at the N-terminus (Cy3 N-t labeled LPETGG peptide joined by sortase); geranylgeranyl by in vitro prenylation (C-terminal prenyl moiety); GTPγS-bound) (chain, as listed by the source G14V): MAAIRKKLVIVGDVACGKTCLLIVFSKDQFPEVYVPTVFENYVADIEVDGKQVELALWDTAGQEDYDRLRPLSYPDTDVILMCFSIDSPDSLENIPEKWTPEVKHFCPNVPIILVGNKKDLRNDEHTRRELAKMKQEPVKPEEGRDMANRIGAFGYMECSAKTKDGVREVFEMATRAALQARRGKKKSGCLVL

B1: Xenopus laevis RhoGDI, wild type (natural protein)
chain: MAEHEPTPEQLHQIAAENQDEEHSVDYKPPAQKSIKEIQELDQDDESLRKYKEALLGSLPSSADPEASNVVVTKLTLLCDCAPGPLELDLTGDLEKFKKQSFTLKEGVEYRIKISFKVNKEIVSGLRYQQQTYRKGVRLDRTRYMVGSYGPRVDEYEFLTPIEEAPNGMLARGCYNIKSLFTDDDKSNHLSWEWNLHIKNDWKS
Regarding B1, in experiment [1], the “fold acceleration of the dissociation of Cdc42:GDP from the membrane by excess GDI” value is about 20 fold. The “fold difference in extraction, GDP-bound GTPase over GTPγS-bound G14V” value in experiment [2] is 1.5 fold. The “fold difference in extraction, GDP-bound GTPase over GTPγS-bound G12V” value in experiment [3] was found to be 1.5 fold.
